# T1: APBA1_1, Q02410
# T1 sequence (Q02410 651-752, limits assumed, looked up): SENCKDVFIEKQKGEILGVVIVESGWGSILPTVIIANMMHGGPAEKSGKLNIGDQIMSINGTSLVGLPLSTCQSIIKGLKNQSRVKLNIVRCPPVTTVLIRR
# T2: MPP2, Q14168
# T2 sequence (Q14168 180-250, limits assumed, looked up): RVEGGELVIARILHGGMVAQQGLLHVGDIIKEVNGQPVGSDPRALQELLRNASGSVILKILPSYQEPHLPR
# T3: GRIP1_3, Q9Y3R0
# T3 sequence (Q9Y3R0 247-346, limits assumed, looked up): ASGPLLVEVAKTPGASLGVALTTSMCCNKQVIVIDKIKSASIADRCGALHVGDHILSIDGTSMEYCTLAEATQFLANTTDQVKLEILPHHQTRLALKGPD
# T4: DLG3_2, Q92796
# T4 sequence (Q92796 221-321, limits assumed, looked up): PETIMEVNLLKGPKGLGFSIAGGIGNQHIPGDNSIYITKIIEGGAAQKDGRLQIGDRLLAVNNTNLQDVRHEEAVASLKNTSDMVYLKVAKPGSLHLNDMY
# T5: GRIP1_5, Q9Y3R0
# T5 sequence (Q9Y3R0 568-668, limits assumed, looked up): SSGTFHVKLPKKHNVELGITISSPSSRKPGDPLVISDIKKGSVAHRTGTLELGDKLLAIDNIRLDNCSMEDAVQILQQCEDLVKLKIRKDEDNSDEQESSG
# T6: RHPN1, Q8TCX5
# T6 sequence (Q8TCX5 508-602, limits assumed, looked up): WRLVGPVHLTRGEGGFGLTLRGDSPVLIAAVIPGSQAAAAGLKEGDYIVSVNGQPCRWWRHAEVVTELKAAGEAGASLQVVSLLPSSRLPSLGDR
# T7: LNX2_2, Q8N448
# T7 sequence (Q8N448 334-432, limits assumed, looked up): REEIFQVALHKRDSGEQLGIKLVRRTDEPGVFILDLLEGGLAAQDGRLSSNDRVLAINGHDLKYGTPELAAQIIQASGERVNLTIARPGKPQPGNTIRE
# T8: NHERF3_1, Q5T2W1
# T8 sequence (Q5T2W1 4-100, limits assumed, looked up): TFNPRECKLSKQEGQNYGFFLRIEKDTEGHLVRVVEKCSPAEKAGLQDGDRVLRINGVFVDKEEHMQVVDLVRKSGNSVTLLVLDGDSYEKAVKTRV
# T9: APBA2_1, Q99767
# T9 sequence (Q99767 563-664, limits assumed, looked up): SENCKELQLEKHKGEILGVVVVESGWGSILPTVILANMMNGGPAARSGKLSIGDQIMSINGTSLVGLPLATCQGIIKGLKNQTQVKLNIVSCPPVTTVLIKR
# T10: SYNJ2BP, P57105
# T10 sequence (P57105 8-110, limits assumed, looked up): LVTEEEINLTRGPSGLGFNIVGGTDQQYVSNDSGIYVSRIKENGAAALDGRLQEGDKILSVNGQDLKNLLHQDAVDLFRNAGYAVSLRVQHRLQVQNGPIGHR
# T11: APBA1_2, Q02410
# T11 sequence (Q02410 742-832, limits assumed, looked up): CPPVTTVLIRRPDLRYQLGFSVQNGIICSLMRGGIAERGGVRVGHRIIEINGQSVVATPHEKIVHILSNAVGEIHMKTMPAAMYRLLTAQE
# T12: NHERF3_3, Q5T2W1
# T12 sequence (Q5T2W1 238-333, limits assumed, looked up): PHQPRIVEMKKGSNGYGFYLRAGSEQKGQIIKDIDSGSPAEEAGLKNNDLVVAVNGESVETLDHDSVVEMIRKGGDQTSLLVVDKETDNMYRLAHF
# B1: SLC9A3, P48764 (peptide)
# chain: PAALPESTHM
# B2: CLDN10, P78369 (peptide)
# chain: SKQFDKNAYV
# Target: T1, APBA1_1, Q02410
# Assay: holdup assay
# Set-up: key: below the threshold = too weak to quantify, mostly under pKd 3.1 to 4
# Conditions: plain residues with an end cap or a label only (N-terminal biotin on a linker: ado-ado)
row,Binder,pKd
1,B1,below the threshold
2,B2,below the threshold

# Target: IL16_3, Q14005
# Sequence (Q14005 1107-1207): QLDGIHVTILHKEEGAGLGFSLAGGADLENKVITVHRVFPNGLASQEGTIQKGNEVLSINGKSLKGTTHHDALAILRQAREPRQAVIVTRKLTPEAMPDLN
# Assay: holdup assay
# Set-up: key: below the threshold = too weak to quantify, mostly under pKd 3.1 to 4
# Conditions: plain residues with an end cap or a label only (N-terminal biotin on a linker: ado-ado)
row,Binder,pKd
1,B1,below the threshold
2,B2,below the threshold

# Target: DLG2_3, Q15700
# Assay: holdup assay
# Set-up: key: below the threshold = too weak to quantify, mostly under pKd 3.1 to 4
# Conditions: plain residues with an end cap or a label only (N-terminal biotin on a linker: ado-ado)
row,Binder,pKd
1,B1,below the threshold
2,B2,below the threshold

# Target: T2, MPP2, Q14168
# Assay: holdup assay
# Set-up: key: below the threshold = too weak to quantify, mostly under pKd 3.1 to 4
# Conditions: plain residues with an end cap or a label only (N-terminal biotin on a linker: ado-ado)
row,Binder,pKd
1,B1,below the threshold
2,B2,below the threshold

# Target: T3, GRIP1_3, Q9Y3R0
# Assay: holdup assay
# Set-up: key: below the threshold = too weak to quantify, mostly under pKd 3.1 to 4
# Conditions: plain residues with an end cap or a label only (N-terminal biotin on a linker: ado-ado)
row,Binder,pKd
1,B1,below the threshold
2,B2,below the threshold

# Target: GRID2IP_2, A4D2P6
# Sequence (A4D2P6 272-370): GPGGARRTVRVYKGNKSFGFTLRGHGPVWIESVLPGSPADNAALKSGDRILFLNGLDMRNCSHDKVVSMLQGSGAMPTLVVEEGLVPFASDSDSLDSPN
# Assay: holdup assay
# Set-up: key: below the threshold = too weak to quantify, mostly under pKd 3.1 to 4
# Conditions: plain residues with an end cap or a label only (N-terminal biotin on a linker: ado-ado)
row,Binder,pKd
1,B1,4.31
2,B2,below the threshold

# Target: FRMPD3, Q5JV73
# Sequence (Q5JV73 12-100): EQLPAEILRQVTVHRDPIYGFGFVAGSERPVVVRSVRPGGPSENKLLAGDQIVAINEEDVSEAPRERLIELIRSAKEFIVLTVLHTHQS
# Assay: holdup assay
# Set-up: key: below the threshold = too weak to quantify, mostly under pKd 3.1 to 4
# Conditions: plain residues with an end cap or a label only (N-terminal biotin on a linker: ado-ado)
row,Binder,pKd
1,B1,below the threshold
2,B2,below the threshold

# Target: T4, DLG3_2, Q92796
# Assay: holdup assay
# Set-up: key: below the threshold = too weak to quantify, mostly under pKd 3.1 to 4
# Conditions: plain residues with an end cap or a label only (N-terminal biotin on a linker: ado-ado)
row,Binder,pKd
1,B1,below the threshold
2,B2,below the threshold

# Target: PDLIM1, O00151
# Sequence (O00151 1-87): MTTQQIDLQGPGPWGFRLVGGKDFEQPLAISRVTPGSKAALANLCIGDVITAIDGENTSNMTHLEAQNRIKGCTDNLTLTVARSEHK
# Assay: holdup assay
# Set-up: key: below the threshold = too weak to quantify, mostly under pKd 3.1 to 4
# Conditions: plain residues with an end cap or a label only (N-terminal biotin on a linker: ado-ado)
row,Binder,pKd
1,B1,below the threshold
2,B2,below the threshold

# Target: GRIP2_5, Q9C0E4
# Sequence (Q9C0E4 544-642): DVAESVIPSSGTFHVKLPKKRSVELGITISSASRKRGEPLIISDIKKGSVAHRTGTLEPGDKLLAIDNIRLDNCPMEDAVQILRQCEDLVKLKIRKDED
# Assay: holdup assay
# Set-up: key: below the threshold = too weak to quantify, mostly under pKd 3.1 to 4
# Conditions: plain residues with an end cap or a label only (N-terminal biotin on a linker: ado-ado)
row,Binder,pKd
1,B1,below the threshold
2,B2,below the threshold

# Target: T5, GRIP1_5, Q9Y3R0
# Assay: holdup assay
# Set-up: key: below the threshold = too weak to quantify, mostly under pKd 3.1 to 4
# Conditions: plain residues with an end cap or a label only (N-terminal biotin on a linker: ado-ado)
row,Binder,pKd
1,B1,below the threshold
2,B2,below the threshold

# Target: T6, RHPN1, Q8TCX5
# Assay: holdup assay
# Set-up: key: below the threshold = too weak to quantify, mostly under pKd 3.1 to 4
# Conditions: plain residues with an end cap or a label only (N-terminal biotin on a linker: ado-ado)
row,Binder,pKd
1,B1,below the threshold
2,B2,3.57

# Target: T7, LNX2_2, Q8N448
# Assay: holdup assay
# Set-up: key: below the threshold = too weak to quantify, mostly under pKd 3.1 to 4
# Conditions: plain residues with an end cap or a label only (N-terminal biotin on a linker: ado-ado)
row,Binder,pKd
1,B1,below the threshold
2,B2,4.1

# Target: PICK1, Q9NRD5
# Sequence (Q9NRD5 17-115): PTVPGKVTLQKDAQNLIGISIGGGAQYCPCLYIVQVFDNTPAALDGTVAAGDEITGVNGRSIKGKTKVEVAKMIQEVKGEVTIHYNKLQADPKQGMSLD
# Assay: holdup assay
# Set-up: key: below the threshold = too weak to quantify, mostly under pKd 3.1 to 4
# Conditions: plain residues with an end cap or a label only (N-terminal biotin on a linker: ado-ado)
row,Binder,pKd
1,B1,4.11
2,B2,below the threshold

# Target: DLG4_1, P78352
# Sequence (P78352 62-152): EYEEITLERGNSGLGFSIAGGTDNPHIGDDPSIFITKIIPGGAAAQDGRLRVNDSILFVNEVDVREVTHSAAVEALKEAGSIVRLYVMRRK
# Assay: holdup assay
# Set-up: key: below the threshold = too weak to quantify, mostly under pKd 3.1 to 4
# Conditions: plain residues with an end cap or a label only (N-terminal biotin on a linker: ado-ado)
row,Binder,pKd
1,B1,below the threshold
2,B2,below the threshold

# Target: DLG4_2, P78352
# Sequence (P78352 155-259): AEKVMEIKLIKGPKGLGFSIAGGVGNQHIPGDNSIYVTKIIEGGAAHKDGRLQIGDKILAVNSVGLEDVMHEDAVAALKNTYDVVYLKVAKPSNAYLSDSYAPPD
# Assay: holdup assay
# Set-up: key: below the threshold = too weak to quantify, mostly under pKd 3.1 to 4
# Conditions: plain residues with an end cap or a label only (N-terminal biotin on a linker: ado-ado)
row,Binder,pKd
1,B1,below the threshold
2,B2,3.52

# Target: NOS1, P29475
# Sequence (P29475 9-101): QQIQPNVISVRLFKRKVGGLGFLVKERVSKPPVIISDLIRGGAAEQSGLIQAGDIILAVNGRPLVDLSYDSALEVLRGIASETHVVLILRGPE
# Assay: holdup assay
# Set-up: key: below the threshold = too weak to quantify, mostly under pKd 3.1 to 4
# Conditions: plain residues with an end cap or a label only (N-terminal biotin on a linker: ado-ado)
row,Binder,pKd
1,B1,below the threshold
2,B2,3.61

# Target: T8, NHERF3_1, Q5T2W1
# Assay: holdup assay
# Set-up: key: below the threshold = too weak to quantify, mostly under pKd 3.1 to 4
# Conditions: plain residues with an end cap or a label only (N-terminal biotin on a linker: ado-ado)
row,Binder,pKd
1,B1,5.37
2,B2,4.85

# Target: Inadl_8, Q8NI35
# Sequence (Q8NI35 1425-1530): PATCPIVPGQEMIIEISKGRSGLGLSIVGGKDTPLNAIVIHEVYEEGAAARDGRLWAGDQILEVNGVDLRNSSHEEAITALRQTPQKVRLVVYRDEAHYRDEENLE
# Assay: holdup assay
# Set-up: key: below the threshold = too weak to quantify, mostly under pKd 3.1 to 4
# Conditions: plain residues with an end cap or a label only (N-terminal biotin on a linker: ado-ado)
row,Binder,pKd
1,B1,below the threshold
2,B2,3.5

# Target: T9, APBA2_1, Q99767
# Assay: holdup assay
# Set-up: key: below the threshold = too weak to quantify, mostly under pKd 3.1 to 4
# Conditions: plain residues with an end cap or a label only (N-terminal biotin on a linker: ado-ado)
row,Binder,pKd
1,B1,below the threshold
2,B2,below the threshold

# Target: MAGI1_1, Q96QZ7
# Sequence (Q96QZ7 1-106): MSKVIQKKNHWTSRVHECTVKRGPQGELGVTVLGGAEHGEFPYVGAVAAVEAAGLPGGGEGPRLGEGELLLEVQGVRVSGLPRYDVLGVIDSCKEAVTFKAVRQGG
# Assay: holdup assay
# Set-up: key: below the threshold = too weak to quantify, mostly under pKd 3.1 to 4
# Conditions: plain residues with an end cap or a label only (N-terminal biotin on a linker: ado-ado)
row,Binder,pKd
1,B1,below the threshold
2,B2,below the threshold

# Target: T10, SYNJ2BP, P57105
# Assay: holdup assay
# Set-up: key: below the threshold = too weak to quantify, mostly under pKd 3.1 to 4
# Conditions: plain residues with an end cap or a label only (N-terminal biotin on a linker: ado-ado)
row,Binder,pKd
1,B1,below the threshold
2,B2,below the threshold

# Target: T11, APBA1_2, Q02410
# Assay: holdup assay
# Set-up: key: below the threshold = too weak to quantify, mostly under pKd 3.1 to 4
# Conditions: plain residues with an end cap or a label only (N-terminal biotin on a linker: ado-ado)
row,Binder,pKd
1,B1,below the threshold
2,B2,3.73

# Target: GRIP2_4, Q9C0E4
# Sequence (Q9C0E4 446-548): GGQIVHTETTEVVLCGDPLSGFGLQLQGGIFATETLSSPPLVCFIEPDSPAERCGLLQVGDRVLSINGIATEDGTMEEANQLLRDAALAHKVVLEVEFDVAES
# Assay: holdup assay
# Set-up: key: below the threshold = too weak to quantify, mostly under pKd 3.1 to 4
# Conditions: plain residues with an end cap or a label only (N-terminal biotin on a linker: ado-ado)
row,Binder,pKd
1,B1,below the threshold
2,B2,below the threshold

# Target: T12, NHERF3_3, Q5T2W1
# Assay: holdup assay
# Set-up: key: below the threshold = too weak to quantify, mostly under pKd 3.1 to 4
# Conditions: plain residues with an end cap or a label only (N-terminal biotin on a linker: ado-ado)
row,Binder,pKd
1,B1,below the threshold
2,B2,below the threshold

# Target: HTRA1, Q92743
# Sequence (Q92743 360-477): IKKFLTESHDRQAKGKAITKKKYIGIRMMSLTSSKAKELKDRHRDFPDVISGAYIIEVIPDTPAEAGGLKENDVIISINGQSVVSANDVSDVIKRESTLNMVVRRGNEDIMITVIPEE
# Assay: holdup assay
# Set-up: key: below the threshold = too weak to quantify, mostly under pKd 3.1 to 4
# Conditions: plain residues with an end cap or a label only (N-terminal biotin on a linker: ado-ado)
row,Binder,pKd
1,B1,below the threshold
2,B2,3.97
